B1: Retinoblastoma-associated protein (Homo sapiens), P06400 (parent)
chain: MPPKTPRKTAATAAAAAAEPPAPPPPPPPEEDPEQDSGPEDLPLVRLEFEETEEPDFTALCQKLKIPDHVRERAWLTWEKVSSVDGVLGGYIQKKKELWGICIFIAAVDLDEMSFTFTELQKNIEISVHKFFNLLKEIDTSTKVDNAMSRLLKKYDVLFALFSKLERTCELIYLTQPSSSISTEINSALVLKVSWITFLLAKGEVLQMEDDLVISFQLMLCVLDYFIKLSPPMLLKEPYKTAVIPINGSPRTPRRGQNRSARIAKQLENDTRIIEVLCKEHECNIDEVKNVYFKNFIPFMNSLGLVTSNGLPEVENLSKRYEEIYLKNKDLDARLFLDHDKTLQTDSIDSFETQRTPRKSNLDEEVNVIPPHTPVRTVMNTIQQLMMILNSASDQPSENLISYFNNCTVNPKESILKRVKDIGYIFKEKFAKAVGQGCVEIGSQRYKLGVRLYYRVMESMLKSEEERLSIQNFSKLLNDNIFHMSLLACALEVVMATYSRSTSQNLDSGTDLSFPWILNVLNLKAFDFYKVIESFIKAEGNLTREMIKHLERCEHRIMESLAWLSDSPLFDLIKQSKDREGPTDHLESACPLNLPLQNNHTAADMYLSPVRSPKKKGSTTRVNSTANAETQATSAFQTQKPLKSTSLSLFYKKVYRLAYLRLNTLCERLLSEHPELEHIIWTLFQHTLQNEYELMRDRHLDQIMMCSMYGICKVKNIDLKFKIIVTAYKDLPHAVQETFKRVLIKEEEYDSIIVFYNSVFMQRLKTNILQYASTRPPTLSPIPHIPRSPYKFPSSPLRIPGGNIYISPLKSPYKISEGLPTPTKMTPRSRILVSIGESFGTSEKFQKINQMVCNSDRVLKRSAEGSNPPKPLKKLRFDIEGSDEADGSKHLPGESKFQQKLAEMTSTRTRMQKQKMNDSMDTSNKEEK
partner: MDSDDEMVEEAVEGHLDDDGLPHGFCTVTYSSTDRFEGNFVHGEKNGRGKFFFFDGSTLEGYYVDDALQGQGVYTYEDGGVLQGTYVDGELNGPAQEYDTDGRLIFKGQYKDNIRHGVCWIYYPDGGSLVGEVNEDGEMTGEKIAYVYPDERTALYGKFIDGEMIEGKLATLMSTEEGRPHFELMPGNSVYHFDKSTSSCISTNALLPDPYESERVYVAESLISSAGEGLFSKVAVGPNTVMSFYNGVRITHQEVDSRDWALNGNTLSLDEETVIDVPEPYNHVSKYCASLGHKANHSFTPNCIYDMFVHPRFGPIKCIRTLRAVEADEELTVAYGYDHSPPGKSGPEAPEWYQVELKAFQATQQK

Variants of: B1
Settings: with setd7_human SETD7, Q8WTS6

| effect of a mutation on the interaction | Variant |
| --- | --- |
| disrupting interaction | K810R |

Source: IntAct's records for PubMed 21119616
